What was measured:
IL-13RA2 huFc (human) [1] = test: SPR (Biacore T200), scFv_Fc forms on IL-13RA2 huFc, summary table
[2] = biological target: T1, IL-13RA2 endogenously expressed on U251 cells (human) (UniProt Q14627); test: flow cytometry on U251 cells, scFv_Fc form, 5-fold dilutions from 2,000 nM, FITC anti-human IgG
T1 sequence (looked up): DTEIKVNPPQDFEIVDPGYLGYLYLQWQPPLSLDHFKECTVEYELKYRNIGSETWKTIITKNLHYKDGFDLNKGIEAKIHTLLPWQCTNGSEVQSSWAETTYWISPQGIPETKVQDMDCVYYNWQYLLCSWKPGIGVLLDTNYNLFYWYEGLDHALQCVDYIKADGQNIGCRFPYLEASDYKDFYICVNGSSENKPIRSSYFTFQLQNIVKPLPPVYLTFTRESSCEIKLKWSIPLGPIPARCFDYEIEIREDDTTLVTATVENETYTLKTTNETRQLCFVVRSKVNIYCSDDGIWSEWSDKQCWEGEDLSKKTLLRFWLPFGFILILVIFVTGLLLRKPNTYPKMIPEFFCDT

IL-13RA2 huFc (human) [3] = test: SPR (Biacore T200), ligand IL13Ra2 on the chip, scFv_Fc as analyte at 6.25 to 100 nM, 1:1 binding fit, flow 30 ul/min

B1: 2D3 (scFv_Fc form) (Fc fusion, not shown: a dimerising Fc or GST)
scFv: EVQLLESGGGLVQPGGSLRLSCAASGFTFRRPAMTWVRQAPGKGLEWVSAITGSGGSTYYADSVKGRFTISRDNSKNTLYLQMNSLRAEDTAVYYCVKVRYGWGAGAFDYWGQGTLVTVSSGGGGSGGGGSGGGGSDIQMTQSPSTLSASVGDRVTITCRASQSISSWLAWYQQKPGKAPKLLIYDASSLESGVPSRFSGSGSGTEFTLTISSLQPDDFATYYCQQYDTYPPITFGQGTKVEIK
- Kd (IL-13RA2 huFc (human) [1]): 0.348 nM
- koff (IL-13RA2 huFc (human) [1]): 0.000196 s⁻¹
- kon (IL-13RA2 huFc (human) [1]): 563000 M⁻¹ s⁻¹
- EC50 [2]: 0.33 nM
- Kd (IL-13RA2 huFc (human) [3]): 0.348 nM
- koff (IL-13RA2 huFc (human) [3]): 0.000196 s⁻¹
- kon (IL-13RA2 huFc (human) [3]): 563000 M⁻¹ s⁻¹
